Laboratory results: patent publication US20250043302A1, “MUTATED HYDROXYPHENYLPYRUVATE DIOXYGENASE POLYPEPTIDE, AND CODING GENE AND USE THEREOF” (BEIJING DABEINONG BIOTECHNOLOGY CO., LTD., priority 2021, published 2025)
Numbering of substitutions follows the chain as printed. Numbers in names are those of the source.

Key:
Assay type in all cases: in vivo
[1] = system: Arabidopsis thaliana T1 plants; assay: Topramezone tolerance of transgenic Arabidopsis thaliana T1 plants (spray, bleached leaf area grade, damage score); settings: 7 DAT, Table 4; for Classification and statistics of the grade of pesticide damage: Grade 0 / Classification and statistics of the grade of pesticide damage: Grade 1 / Classification and statistics of the grade of pesticide damage: Grade 2 / Classification and statistics of the grade of pesticide damage: Grade 3: number of plants; for Scores: pesticide damage score 0-100
Outline: (§1)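 Damage graded 0–3 from the proportion of bleached leaf area 7 days after spraying. Plants were glufosinate-selected T1 lines, 18 days after sowing, plus vector and wild-type controls. Rates: mesotrione 52.5–420, isoxaflutole 35–280, topramezone 25–200 g ai/ha, with water (0×).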

[2] = system: Arabidopsis thaliana T1 plants; assay: Isoxaflutole tolerance of transgenic Arabidopsis thaliana T1 plants (spray, bleached leaf area grade, damage score); design: Scores (pesticide damage): scale not given here; settings: spray, Arabidopsis thaliana T1 plants; for Classification and statistics of the grade of pesticide damage: Grade 0 (number of plants) / Classification and statistics of the grade of pesticide damage: Grade 1 (number of plants) / Classification and statistics of the grade of pesticide damage: Grade 2 (number of plants) / Classification and statistics of the grade of pesticide damage: Grade 3 (number of plants): 16 plants
Outline: as §1

[3] = system: Arabidopsis thaliana T1 plants; assay: Mesotrione tolerance of transgenic Arabidopsis thaliana T1 plants (spray, bleached leaf area grade, damage score); design: Scores: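 damage score 0-100 computed as Σ(N×S)/(T×M)×100 over grades 0-3 with higher meaning more damage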; settings: Arabidopsis thaliana T1 plants; for Grade 0 (classification and statistics of the grade of pesticide damage; number of plants) / Grade 1 (classification and statistics of the grade of pesticide damage; number of plants) / Grade 2 (classification and statistics of the grade of pesticide damage; number of plants) / Grade 3 (classification and statistics of the grade of pesticide damage; number of plants): 16 plants
Outline: as §1

[4] = isoxaflutole 35 g ai/ha (0.5x field concentration)
[5] = isoxaflutole 70 g ai/ha (1x field concentration)

B1: GsHPPDm-F372A-02: nucleotide sequence encoding Gossypium hirsutum HPPD with F372A; vector DBN11739 (nucleic acid)
DNA: ATGGTTCAAACAAATCAATCTGGTTCTGGGAATGATTTCAAGCTGGTTGGTTTCTCAAATTTTGTGCGTAGCAATCCCAAATCAGACCGCTTCACGGTCAAGAGATTCCACCACATTGAATTTTGGTGCACTGATGCCACTAATGTGGCGAGGAGGTTTTCATGGGGTTTAGGGATGCAGTTCGTCGCCAAGAGTGACCTCTCCACAGGAAATTTGACGCATGCAAGCTACCTGCTGCGGAGCCGCGACTTGAATTTCCTGTTTACAGCACCATATTCACCCAGTATTGCAGTTGCTCAAAACCTTTCGCCACAAAGCACTGCTTCCATACCTTCATTTGATCACTCGCTTTGTCGGTCCTTTGCTGCAACACATGGACTTGGCGTCAGAGCAATTGCCATCGAGGTGGACGACGCCGAAACTGCCTTCACCACGAGCGTGACACATGGCGCGCTCCCTTTTTGTCCACCAACACCACTAGGAGATGTGGCTACAATTGCTGAAGTTAAATTATATGGTGATGTTGTGCTCAGATATGTTTCTTACACCACAACCATCAACTCCGACCATGATTTTCTGCCTGGTTTTGAGAAGATTGAAGATACTCTATCGTATCCTTTGGATTATGGCCTGCGTCGGCTCGATCATGCTGTTGGCAACGTACCTGAATTAGGTCCTGCTGTATCTTATGTGAAATCTTTTACTGGGTTCCATGAGTTTGCAGAGTTCACCGCTGAGGATGTAGGAACAAGTGAATCTGGGCTGAACTCAGTTGTTTTGGCCAACAATGAGGAAATGGTCCTCTTACCAATGAACGAGCCGGTGTTCGGCACTAAGCGCAAATCTCAAATACAGACCTACTTGGAGCACAATGAAGGAGCTGGTGTGCAGCACCTCGCCCTCGTCTCGGAGGACATCTTCAAAACTTTAAGGGAGATGAGGAAACGATCCTTTGTGGGAGGATTTGAATTCATGCCTTCTCCGCCGCCGACATACTACAAGAAGCTCAAGCAGCGCGCGGGGGACATTTTGTCTGATGAGCAGATCAAGGAGTGTGAAGAGCTTGGGATTCTTGTTGATAGAGATGATCAAGGAACGCTTCTGCAGATAGCCACCAAGCCCGTCGGCGACCGGCCTACTATATTCATTGAGATCATCCAGAGAATTGGTTGCATGGTGAAGGATGAAGAAGGGAAACAGTACCAGAAGGGCGGCTGCGGCGGGTTTGGAAAAGGAAACTTCAGTGAGCTGTTTAAAAGTATAGAGGAGTATGAAAAGAGCTTGGAAGCAAAACAATCACAAAATCCATGA
modifications: GsHPPDm-F372A-02 Nucleotide Sequence
notes: vector DBN11739
[1]; topramezone 25 g ai/ha (1×)
  Classification and statistics of the grade of pesticide damage: Grade 0: 16
  Classification and statistics of the grade of pesticide damage: Grade 1: 0
  Classification and statistics of the grade of pesticide damage: Grade 2: 0
  Classification and statistics of the grade of pesticide damage: Grade 3: 0
  Scores: 0
  Resistance evaluation: highly
[1]; topramezone 100 g ai/ha (4×)
  Classification and statistics of the grade of pesticide damage: Grade 0: 0
  Classification and statistics of the grade of pesticide damage: Grade 1: 0
  Classification and statistics of the grade of pesticide damage: Grade 2: 0
  Classification and statistics of the grade of pesticide damage: Grade 3: 16
  Scores: 100
  Resistance evaluation: non-resistant (non-resistant plants (scores 68-100))
[2]; [4]
  Resistance evaluation: Moderately
  Scores (pesticide damage): 33
  Classification and statistics of the grade of pesticide damage: Grade 0 (number of plants): 3
  Classification and statistics of the grade of pesticide damage: Grade 1 (number of plants): 10
  Classification and statistics of the grade of pesticide damage: Grade 2 (number of plants): 3
  Classification and statistics of the grade of pesticide damage: Grade 3 (number of plants): 0
[2]; [5]
  Resistance evaluation: Non-resistant
  Scores (pesticide damage): 100
  Classification and statistics of the grade of pesticide damage: Grade 0 (number of plants): 0
  Classification and statistics of the grade of pesticide damage: Grade 1 (number of plants): 0
  Classification and statistics of the grade of pesticide damage: Grade 2 (number of plants): 0
  Classification and statistics of the grade of pesticide damage: Grade 3 (number of plants): 16
[3]; mesotrione 52.5 g ai/ha
  Resistance evaluation: Poorly resistant
  Scores: 54
  Grade 0 (classification and statistics of the grade of pesticide damage; number of plants): 0
  Grade 1 (classification and statistics of the grade of pesticide damage; number of plants): 8
  Grade 2 (classification and statistics of the grade of pesticide damage; number of plants): 6
  Grade 3 (classification and statistics of the grade of pesticide damage; number of plants): 2
[3]; mesotrione 105 g ai/ha
  Resistance evaluation: Non-resistant
  Scores: 100
  Grade 0 (classification and statistics of the grade of pesticide damage; number of plants): 0
  Grade 1 (classification and statistics of the grade of pesticide damage; number of plants): 0
  Grade 2 (classification and statistics of the grade of pesticide damage; number of plants): 0
  Grade 3 (classification and statistics of the grade of pesticide damage; number of plants): 16

B2: GsHPPDm-F383W-02: nucleotide sequence encoding Gossypium hirsutum HPPD with F383W; vector DBN11740 (nucleic acid)
DNA: B1 DNA with G1111T, C1112T, C1113T, T1145G, C1146G
modifications: GsHPPDm-F383W-02 Nucleotide Sequence
notes: vector DBN11740
[1]; topramezone 25 g ai/ha (1×)
  Classification and statistics of the grade of pesticide damage: Grade 0: 0
  Classification and statistics of the grade of pesticide damage: Grade 1: 3
  Classification and statistics of the grade of pesticide damage: Grade 2: 9
  Classification and statistics of the grade of pesticide damage: Grade 3: 4
  Scores: 69
  Resistance evaluation: non-resistant (non-resistant plants (scores 68-100))
[1]; topramezone 100 g ai/ha (4×)
  Classification and statistics of the grade of pesticide damage: Grade 0: 0
  Classification and statistics of the grade of pesticide damage: Grade 1: 0
  Classification and statistics of the grade of pesticide damage: Grade 2: 0
  Classification and statistics of the grade of pesticide damage: Grade 3: 16
  Scores: 100
  Resistance evaluation: non-resistant (non-resistant plants (scores 68-100))
[2]; [4]
  Resistance evaluation: Non-resistant
  Scores (pesticide damage): 73
  Classification and statistics of the grade of pesticide damage: Grade 0 (number of plants): 0
  Classification and statistics of the grade of pesticide damage: Grade 1 (number of plants): 2
  Classification and statistics of the grade of pesticide damage: Grade 2 (number of plants): 9
  Classification and statistics of the grade of pesticide damage: Grade 3 (number of plants): 5
[2]; [5]
  Resistance evaluation: Non-resistant
  Scores (pesticide damage): 100
  Classification and statistics of the grade of pesticide damage: Grade 0 (number of plants): 0
  Classification and statistics of the grade of pesticide damage: Grade 1 (number of plants): 0
  Classification and statistics of the grade of pesticide damage: Grade 2 (number of plants): 0
  Classification and statistics of the grade of pesticide damage: Grade 3 (number of plants): 16
[3]; mesotrione 52.5 g ai/ha
  Resistance evaluation: Non-resistant
  Scores: 100
  Grade 0 (classification and statistics of the grade of pesticide damage; number of plants): 0
  Grade 1 (classification and statistics of the grade of pesticide damage; number of plants): 0
  Grade 2 (classification and statistics of the grade of pesticide damage; number of plants): 0
  Grade 3 (classification and statistics of the grade of pesticide damage; number of plants): 16
[3]; mesotrione 105 g ai/ha
  Resistance evaluation: Non-resistant
  Scores: 100
  Grade 0 (classification and statistics of the grade of pesticide damage; number of plants): 0
  Grade 1 (classification and statistics of the grade of pesticide damage; number of plants): 0
  Grade 2 (classification and statistics of the grade of pesticide damage; number of plants): 0
  Grade 3 (classification and statistics of the grade of pesticide damage; number of plants): 16
